Experimental data: paper PMC10942344 (bioRxiv, 2024)

How the values were obtained:
Test in all cases: SPR
[1] = target: recombinant GP38 of CCHFV Kosova-Hoti (CCHFV Kosova-Hoti, UniProt B2BSL7, strain)
[2] = target: recombinant GP38 of CCHFV 200406546-Turkey (CCHFV 200406546-Turkey, UniProt A0A0U2SQZ0, strain)
[3] = target: recombinant GP38 of CCHFV Oman-199809166 (CCHFV Oman-199809166, UniProt A0A0U3C6Q7, strain)

Measured: Kd

B1: ADI-58048 IgG (antibody, V domains shown)
VH: QLQLQESGPGLVKPSETLSLTCTVSGGSITTSHYYWGWIRQPPGKGLEWVGSMYYSGGIYYNPSLKGRVTISVDTSKNQFSLKLSSVTAADTAVYYCALADAPDDAFDIWGQGTMVTVSS
VL: DIQMTQSPSSLSAFVGDRVTITCRASQSISSYLNWYQQKPGKAPKLLIYAASTLQSGVPSRFSGSGSGTDFTLTISSLQSEDFATYYCQESYSIPFTFGPGTKVDIK
< 0.398 nM: all assays above
